Assay [1] concerns the target T1, cynomolgus E11 protein (E11 domain of cynomolgus FcRH5), soluble (cynomolgus monkey).
T1 chain: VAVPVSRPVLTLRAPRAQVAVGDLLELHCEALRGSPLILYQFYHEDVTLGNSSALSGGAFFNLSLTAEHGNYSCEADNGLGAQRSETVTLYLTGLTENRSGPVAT
Briefly: SPR BIACORE T200, IgG capture, monovalent. (In general: Surface plasmon resonance follows binding to a sensor surface in real time, without labels.)

In assay [2] the target is T2, human E11 protein (E11 domain of human FcRH5), soluble (human, UniProt Q96RD9 745-850).
T2 construct: Expressed in CHO cells; also called human E11 domain
T2 sequence: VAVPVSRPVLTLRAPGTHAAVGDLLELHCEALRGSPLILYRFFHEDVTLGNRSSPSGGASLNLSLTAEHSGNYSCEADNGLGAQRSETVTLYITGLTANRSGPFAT
In words: SPR BIACORE T200, IgG capture, monovalent.

B1: 17B1 (antibody, mouse IgG2a, V domains shown)
VH: QVQLQQSGPELVRPGVSVKISCKGSGYTFTHYAMHWVKQSHTKSLEWIGMISSSSGNTNFNQKFMDKATMTVDKSSTTAYLELARLTFGDSAIYYCARWSYYALFDYWGQGTTVTVSS
VL: ENVLTQSPAIMSASPGEKVTMTCSADSSVDYIHWYQQKSNTSPKLWIYDTSKLASGVPGRFSGSGSGNSYSLTISSMEAEDFATYYCFQGSGYPLTFGSGTKLELK
notes: Mouse mAb, Immunization Campaign C; expressed recombinantly as murine IgG2a for SPR
For the molecule B1, the Kd (commonly the constant that tells how readily two partners part at equilibrium) in assay [1] turned out to be 27 nM; in assay [2], 68 nM.

B2: 15G8 (antibody, mouse IgG2a, V domains shown)
VH: EVQLQQSGPELVKPGASVKMSCKASGYTFTNYVIHWMKQKPGQGLEWIGYISPYNDYTKYNEKFEGKATLTSDKSSNTAYMELSSLTSEDSAVYYCARRDYYGSSDYWGQGTTLTVSS
VL: QIVLTQSPAIMSASPGEKVTMTCSASSSVDYMHWYQQKSGTSPKKWIYDTSKLASGVPARFSGSGSGTSYSLTIGSMEAEDAATYYCQQWSSNPPTFGGGTKLEIK
notes: Mouse mAb, Immunization Campaign C; expressed recombinantly as murine IgG2a for SPR; also called mAb 15G8
B2: the Kd in assay [1] worked out at 9.1 nM; in assay [2] it was 0.5 nM.

(Values after patent publication US20160368985A1 (published 2016).)
